Results as given in patent US20190002534A1 (UNIVERSITY OF MASSACHUSETTS, published 2019).

Tests used:
[1] = biological target: T1, G glycoprotein of rabies virus street isolate DR Brazil (rabies virus, isolate DR Brazil …); test: cell-based or functional assay
[2] = biological target: T1, G glycoprotein of rabies virus street …; test: cell-based or functional assay; remark: listed apart in the source

Binder	EC50 neutralization by RFFIT [1] [µg/mL]	EC50 neutralization by RFFIT (Test A) [2] [µg/mL]
anti-rabies virus human monoclonal antibody 2B10 (antibody, V domains shown) VH: EVQLVQSGGGLVHPGGSLRLSCAGSGFTFSYFAMHWVRQAPGKGLEWVSTIGTGGGTYYADSVKGRFTISRDNAKNSLYLQMNSLRAEDMAVYYCARDNALRSFDWLFYSFDYWGQGTLVTVSS VL: EIVLTQSPGTLSLSPGERATLSCRASQSISSSYLAWYQQKPGQAPRLLIYGASSRATGIPDRFSGSGSGTDFTLTISRLEPEDFAVYYCQRYGSSYTFGQGTKLEIK	0.004	0.004
anti-rabies virus human monoclonal antibody 17C7 (antibody, V domains shown) VH: QVQLVESGGGVVQPGRSLRLSCAASGFTFSTYAMHWVRQAPGKGLEWVAVVSYDGRTKDYADSVKGRFTISRDNSKNTLYLQMNSLRTEDTAVYFCARERFSGAYFDYWGQGTLVTVSS VL: EIVLTQSPATLSLSPGERATLSCRASQSVSSYLAWYQQKPGQAPRLLIYDASNRATGIPARFSGSGSGTDFTLTISSLEPEDFAVYSCQQRNNWPPTFGGGTKVEIK	0.222	0.222
